Drawing on the Human Domainome abundance scans (Beltran et al. 2025), this text covers abundance fitness for 57 substances.

± gives the uncertainty stated by the source.

A short description of the data set: abundance fitness (aPCA) (normalised: wild type 0, dead -1); higher = more abundant; growth selection in yeast, the domain comes from the species named. The conditions noted are these: Homo sapiens.
The substance “NEDD4-like E3 ubiquitin-protein ligase WWP2 S487E, O00308” displayed an abundance fitness of 0.025 ± 0.034.

Turning to “NEDD4-like E3 ubiquitin-protein ligase WWP2 S487F, O00308”, the abundance fitness is -0.112 ± 0.057.

“NEDD4-like E3 ubiquitin-protein ligase WWP2 S487G, O00308”: the abundance fitness was -0.03 ± 0.034.

“NEDD4-like E3 ubiquitin-protein ligase WWP2 S487H, O00308” had an abundance fitness of 0.111 ± 0.073.

“NEDD4-like E3 ubiquitin-protein ligase WWP2 S487I, O00308” registered an abundance fitness of -0.038 ± 0.074.

For the substance “NEDD4-like E3 ubiquitin-protein ligase WWP2 S487K, O00308”, the abundance fitness was found to be 0.016 ± 0.038.

Take “NEDD4-like E3 ubiquitin-protein ligase WWP2 S487L, O00308”: the abundance fitness is -0.067 ± 0.04.

“NEDD4-like E3 ubiquitin-protein ligase WWP2 S487M, O00308” gave an abundance fitness of -0.024 ± 0.057.

In turn, “NEDD4-like E3 ubiquitin-protein ligase WWP2 S487N, O00308” had an abundance fitness of -0.034 ± 0.04.

Substance “NEDD4-like E3 ubiquitin-protein ligase WWP2 S487Q, O00308” had an abundance fitness of -0.024 ± 0.061.

Turning to “NEDD4-like E3 ubiquitin-protein ligase WWP2 S487R, O00308”, the abundance fitness was -0.006 ± 0.034.

For the substance “NEDD4-like E3 ubiquitin-protein ligase WWP2 S487T, O00308”, the abundance fitness worked out at 0.058 ± 0.059.

Consider “NEDD4-like E3 ubiquitin-protein ligase WWP2 S487V, O00308”, for which the abundance fitness is -0.034 ± 0.035.

“NEDD4-like E3 ubiquitin-protein ligase WWP2 S487W, O00308” came in with an abundance fitness of -0.149 ± 0.05.

“NEDD4-like E3 ubiquitin-protein ligase WWP2 T455A, O00308” yielded an abundance fitness of -0.659 ± 0.061.

The substance “NEDD4-like E3 ubiquitin-protein ligase WWP2 T455C, O00308” had an abundance fitness of -0.339 ± 0.068.

For the substance “NEDD4-like E3 ubiquitin-protein ligase WWP2 T455E, O00308”, the abundance fitness is -0.563 ± 0.18.

“NEDD4-like E3 ubiquitin-protein ligase WWP2 T455F, O00308” displayed an abundance fitness of -0.912 ± 0.14.

“NEDD4-like E3 ubiquitin-protein ligase WWP2 T455G, O00308”: the abundance fitness was -0.379 ± 0.045.

In turn, “NEDD4-like E3 ubiquitin-protein ligase WWP2 T455I, O00308” yielded an abundance fitness of -0.529 ± 0.08.

Substance “NEDD4-like E3 ubiquitin-protein ligase WWP2 T455K, O00308” had an abundance fitness of -0.628 ± 0.082.

On to “NEDD4-like E3 ubiquitin-protein ligase WWP2 T455L, O00308”, for which the abundance fitness is -0.258 ± 0.048.

Consider “NEDD4-like E3 ubiquitin-protein ligase WWP2 T455M, O00308”, for which the abundance fitness is -0.415 ± 0.066.

“NEDD4-like E3 ubiquitin-protein ligase WWP2 T455N, O00308” had an abundance fitness of -0.147 ± 0.073.

Substance “NEDD4-like E3 ubiquitin-protein ligase WWP2 T455P, O00308” gave an abundance fitness of -0.968 ± 0.071.

Take “NEDD4-like E3 ubiquitin-protein ligase WWP2 T455R, O00308”: the abundance fitness was -0.762 ± 0.038.

On to “NEDD4-like E3 ubiquitin-protein ligase WWP2 T455S, O00308”, for which the abundance fitness is -0.115 ± 0.041.

The substance “NEDD4-like E3 ubiquitin-protein ligase WWP2 T455V, O00308” registered an abundance fitness of -0.678 ± 0.05.

“NEDD4-like E3 ubiquitin-protein ligase WWP2 T455W, O00308”: the abundance fitness is -0.866 ± 0.1.

“NEDD4-like E3 ubiquitin-protein ligase WWP2 T455Y, O00308” gave an abundance fitness of -0.62 ± 0.07.

In turn, “NEDD4-like E3 ubiquitin-protein ligase WWP2 T467A, O00308” gave an abundance fitness of -0.098 ± 0.12.

“NEDD4-like E3 ubiquitin-protein ligase WWP2 T467I, O00308” yielded an abundance fitness of -0.421 ± 0.26.

On to “NEDD4-like E3 ubiquitin-protein ligase WWP2 T467R, O00308”, for which the abundance fitness is -0.405 ± 0.18.

Turning to “NEDD4-like E3 ubiquitin-protein ligase WWP2 T467S, O00308”, the abundance fitness was -0.136 ± 0.056.

On to “NEDD4-like E3 ubiquitin-protein ligase WWP2 T469C, O00308”, for which the abundance fitness is -0.078 ± 0.057.

Turning to “NEDD4-like E3 ubiquitin-protein ligase WWP2 T469D, O00308”, the abundance fitness was -0.257 ± 0.055.

As for “NEDD4-like E3 ubiquitin-protein ligase WWP2 T469E, O00308”, the abundance fitness is -0.228 ± 0.034.

For the substance “NEDD4-like E3 ubiquitin-protein ligase WWP2 T469F, O00308”, the abundance fitness is -0.215 ± 0.068.

The substance “NEDD4-like E3 ubiquitin-protein ligase WWP2 T469G, O00308” registered an abundance fitness of -0.346 ± 0.054.

Consider “NEDD4-like E3 ubiquitin-protein ligase WWP2 T469H, O00308”, for which the abundance fitness is -0.26 ± 0.036.

Substance “NEDD4-like E3 ubiquitin-protein ligase WWP2 T469M, O00308” yielded an abundance fitness of -0.096 ± 0.053.

As to “NEDD4-like E3 ubiquitin-protein ligase WWP2 T469N, O00308”, the abundance fitness was -0.093 ± 0.072.

As to “NEDD4-like E3 ubiquitin-protein ligase WWP2 T469P, O00308”, the abundance fitness is -1.16 ± 0.13.

Regarding “NEDD4-like E3 ubiquitin-protein ligase WWP2 T469Q, O00308”, the abundance fitness is -0.196 ± 0.06.

On to “NEDD4-like E3 ubiquitin-protein ligase WWP2 T469R, O00308”, for which the abundance fitness was -0.243 ± 0.038.

Substance “NEDD4-like E3 ubiquitin-protein ligase WWP2 T469S, O00308” registered an abundance fitness of -0.032 ± 0.041.

Substance “NEDD4-like E3 ubiquitin-protein ligase WWP2 T469V, O00308” yielded an abundance fitness of -0.151 ± 0.038.

As to “NEDD4-like E3 ubiquitin-protein ligase WWP2 T469W, O00308”, the abundance fitness is -0.502 ± 0.036.

Substance “NEDD4-like E3 ubiquitin-protein ligase WWP2 T469Y, O00308” came in with an abundance fitness of -0.264 ± 0.062.

“NEDD4-like E3 ubiquitin-protein ligase WWP2 T470A, O00308” gave an abundance fitness of -0.265 ± 0.035.

As to “NEDD4-like E3 ubiquitin-protein ligase WWP2 T470C, O00308”, the abundance fitness was -0.164 ± 0.069.

On to “NEDD4-like E3 ubiquitin-protein ligase WWP2 T470D, O00308”, for which the abundance fitness is -0.653 ± 0.072.

In turn, “NEDD4-like E3 ubiquitin-protein ligase WWP2 T470E, O00308” displayed an abundance fitness of -0.218 ± 0.068.

Turning to “NEDD4-like E3 ubiquitin-protein ligase WWP2 T470I, O00308”, the abundance fitness is -0.734 ± 0.15.

In turn, “NEDD4-like E3 ubiquitin-protein ligase WWP2 T470K, O00308” yielded an abundance fitness of -0.356 ± 0.039.

On to “NEDD4-like E3 ubiquitin-protein ligase WWP2 T470L, O00308”, for which the abundance fitness was -0.437 ± 0.04.

“NEDD4-like E3 ubiquitin-protein ligase WWP2 T470M, O00308” yielded an abundance fitness of -0.398 ± 0.048.
